Experimental findings from patent US20240350596 are described below.

For this series, the system named is ghrelin (acylated; [3H]-ghrelin labeled on the octanoic acid moiety of the acylated Ser3).
Substance “BChE mutant A199S/F227A/P285Q/S287G/A328W/Y332G” displayed a Relative catalytic efficiency for ghrelin (Relative to CocH3) (fold relative to CocH3) of 3. The substance “BChE mutant A199S/F227A/P285S/S287G/A328W/Y332G” returned a Relative catalytic efficiency for ghrelin (Relative to CocH3) (fold relative to CocH3) of 2. Next, BChE mutant A199S/S287G/A328W/Y332G: 2. Substance BChE mutant F398I returned a Relative catalytic efficiency for ghrelin (Relative to CocH3) (fold relative to CocH3) of 2.

Regarding BChE mutant T284S/P285I/F398I, the Relative catalytic efficiency for ghrelin (Relative to CocH3) (fold relative to CocH3) turned out to be 3. Next, BChE mutant T284S/P285I/V288I: 3; BChE mutant T284S/P285I/V288I/F398I: 3. For “BChE-M02 (A199S/F227A/P285A/S287G/A328W/Y332G mutant of human BChE)”, the Relative catalytic efficiency for ghrelin (Relative to CocH3) (fold relative to CocH3) was found to be 3. Next, “CocH3 (A199S/F227A/S287G/A328W/Y332G mutant of human BChE)”: 1. Substance Wild-type human BChE returned a Relative catalytic efficiency for ghrelin (Relative to CocH3) (fold relative to CocH3) of 1.5.
